Assay [1] has as its target T1, His-tagged human TSLP antigen (huTSLP-his) (human).
T1 construct: Secreted from HEK293E and purified on nickel; whole entry named; also called Human TSLP-his
The experiment in a line: ELISA on human TSLP. For orientation: In an ELISA, binding on a coated surface is turned into a signal by an enzyme label.

Assay [2] addresses T2, native TSLP (human, UniProt Q969D9 29-159). The experiment in a line: cell-based or functional assay.
Assay [3] addresses T3, Fc-tagged human TSLP antigen (huTSLP-Fc) (human, biotin-labeled in the blocking assays).
T3 construct: whole entry named; also called recombinant human TSLP-Fc
Description: competition FACS: biotin-TSLP-Fc binding to CHOK1-TSLPR/IL-7R cells.

Assay [4] has as its target T4, His-tagged cynomolgus monkey TSLP antigen (cynoTSLP-His) (cynomolgus monkey).
T4 construct: whole entry named
T4 chain: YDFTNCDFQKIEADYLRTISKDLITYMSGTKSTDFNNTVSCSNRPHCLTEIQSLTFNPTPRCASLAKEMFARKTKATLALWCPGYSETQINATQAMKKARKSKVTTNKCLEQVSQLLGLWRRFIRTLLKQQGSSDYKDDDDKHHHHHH
Description: Biacore T200, antibody captured on Protein A chip, antigen in flow, 1:1 Langmuir. For orientation: In SPR one partner is held on a chip, and binding of the other changes the refractive index at the surface.

In assay [5] the target is T1, His-tagged human TSLP antigen …. The assay is described as above.
Assay [6] deals with T3, Fc-tagged human TSLP antigen (huTSLP-Fc). Description: competition ELISA: biotin-huTSLP-Fc binding to coated human-TSLPR-Fc-ECD.
The target in assay [7] is T1, His-tagged human TSLP antigen …. Description: ELISA, coated huTSLP-his.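 Further: binding of antibodies to plate-bound TSLP read as absorbance at 450 nm after TMB colour development, EC50 derived from binding curves.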
Assay [8] deals with T3, Fc-tagged human TSLP antigen (huTSLP-Fc). The experiment in a line: cell-based or functional assay.
The target is the same in assay [9]. The experiment in a line: competition ELISA: plate coated with human-TSLPR-Fc-ECD, biotin-labeled huTSLP-Fc premixed with the antibody dilution series, streptavidin-peroxidase detection, OD450; blocked ligand-receptor pair is TSLP and TSLPR.
Assay [10] concerns the target T1, His-tagged human TSLP antigen …. Description: Biacore (SPR).
Assay [11] deals with T2, native TSLP. The experiment in a line: cell-based or functional assay. This is another data set of the same source.
Assay [12] has as its target T3, Fc-tagged human TSLP antigen (huTSLP-Fc). Description: competition ELISA: blocks TSLP binding to TSLP receptor.

Positions count from the first letter of the chain named. Numbers in names are those of the source.

B1: hu3-11 (antibody, human IgG1, kappa, V domains shown)
VH: EVQLVQSGAEVKKPGASVKVSCKASGYTFTDDYMNWVRQAPGQRLEWMGIISPYNGGTSYNQKFKGRVTLTVDKSASTAYMELSSLRSEDTAVYYCAREDYDYDGYAMDYWGQGTTVTVSS
VL: EIVLTQSPATLSLSPGERATLSCRASSSVSYMHWYQQKPGQAPRPWIYATSNLASGVPARFSGSGSGTSYTLTISRLEPEDFAVYYCQQWSSDRTFGGGTKVEIKR
notes: IgG1-YTE, kappa; also called hu3VH2-H110Y + hu3VL4-N93D
Turning to B1, in assay [1], the binding result was “binds”.

B2: hu3-13 (antibody, human IgG1, kappa, V domains shown)
VH: B1 VH
VL: B1 VL with W90S, S91D, D93G, T95E
notes: IgG1-YTE, kappa; also called hu3VH2-H110Y + hu3VL6
A word on the IC50: it is the concentration that gives 50% inhibition. In general, Kd refers to the concentration at which binding is half-saturated. In general, EC50 refers to the midpoint of the concentration-response curve. Consider B2, for which, in the assay with native TSLP [2], the “IC50 (nM), inhibition of native TSLP-induced proliferation of BaF3-TLSPR/IL-7R cells” value stood at 0.289 nM. The IC50 in [3] is 0.133 nM; in [6], 0.497 nM. In addition, the figures for the Kd in assay [4] and in assay [5] were 0.34 nM and 0.001 nM, respectively. This molecule yielded an EC50 in assay [7] of 0.148 nM. In addition, the “IC50 (nM), inhibition of TSLP-induced proliferation of BaF3 cells overexpressing TSLPR/IL-7R” value in [8] was found to be 0.444 nM.

B3: AMG157 (tezepelumab, anti-TSLP antibody) (antibody, human IgG2, lambda, V domains shown)
VH: QMQLVESGGGVVQPGRSLRLSCAASGFTFRTYGMHWVRQAPGKGLEWVAVIWYDGSNKHYADSVKGRFTITRDNSKNTLNLQMNSLRAEDTAVYYCARAPQWELVHEAFDIWGQGTMVTVSS
VL: SYVLTQPPSVSVAPGQTARITCGGNNLGSKSVHWYQQKPGQAPVLVVYDDSDRPSWIPERFSGSNSGNTATLTISRGEAGDEADYYCQVWDSSSDHVVFGGGTKLTVLG
notes: positive control
With B3, the “IC50 (read off the curve)” value in [9] is around 0.5 nM. Also, the Kd is 0.00812 nM in assay [10], 0.00922 nM in [4] and 0.00812 nM in assay [5]. In addition, in [3], the IC50 amounted to 0.207 nM. Moreover, in assay [7], the EC50 amounted to 0.722 nM. In assay [8], the “IC50 (nM), inhibition of TSLP-induced proliferation of BaF3 cells overexpressing TSLPR/IL-7R” value is 0.573 nM.

B4: hu119-30 (antibody, human IgG1, kappa, V domains shown)
VH: EAQLVQSGAEVKKPGSSVKVSCKASGFTFSTYNMHWVRQAPGQGLEWIGAIYPGNGETSYNQKFKDRATLTVDKSTRTAYMELSSLRSEDTAVYYCAREDDYGEGYFDVWGQGTTVTVSS
VL: DIVLTQSPATLSLSPGERATLSCRASESVDSSGLSFMHWYQQKPGQPPRLLLYRASNLGSGIPARFSGSGSGTDFTLTISSLEPEDFAVYYCQQINTDPLTFGQGTKLEIKR
notes: IgG1-YTE, kappa; also called hu119VH8 + hu119VL6-N31S
With B4, the “IC50 (nM), inhibition of native TSLP-induced proliferation of BaF3-TLSPR/IL-7R cells” value with native TSLP [2] is 1.53 nM. For the same molecule, the values for the IC50 in assay [3] and in assay [6] were 0.137 nM and 0.519 nM, respectively. For the same molecule, the Kd was determined as 1.95 nM in assay [4] and 0.005 nM in [5]. In addition, the “IC50 (nM), inhibition of TSLP-induced proliferation of BaF3 cells overexpressing TSLPR/IL-7R” value in [8] came out at 0.43 nM.

B5: hu179-33 (antibody, human IgG1, kappa, V domains shown)
VH: EVQLVQSGAEVKKPGSSVKVSCKASGYTFSNYLIEWVRQAPGQGLEWIGVIDPGVGDTNYNENFKGRATLTADKSTSTAYIELSSLRSEDTAVYYCAREDNTGTAFDYWGQGTTVTVSS
VL: SIVMTQTPLSLSVTPGQPASISCKASQSVSSDVTWYLQKPGQSPQLLIYYVSEHYTGVPDRFSGSGYGTDFTLKISRVEAEDVGVYYCQQHHRFPLTFGQGTKLEIKR
notes: IgG1-YTE, kappa; also called hu179VH3-N55V + hu179VL8-N53E
As to B5, in the assay with native TSLP [2], the “IC50 (nM), inhibition of native TSLP-induced proliferation of BaF3-TLSPR/IL-7R cells” value was found to be 0.0228 nM. Moreover, the Kd came out at 0.000903 nM in assay [10], 0.0304 nM in [4] and 0.000903 nM in assay [5]. The results for the IC50 in assay [3] and in assay [6] were 0.187 nM and 0.504 nM, respectively. In addition, the “activity in inhibiting native TSLP-stimulated proliferation of BaF3, relative to AMG157” value in the assay with native TSLP [11] is 100 times. Besides, in assay [8], the “IC50 (nM), inhibition of TSLP-induced proliferation of BaF3 cells overexpressing TSLPR/IL-7R” value amounted to 0.409 nM.

B6: hu199-30 (antibody, human IgG1, kappa, V domains shown)
VH: EVQLVQSGAEVKKPGASVKVSCKASGYTFTTYWMHWVKQAPGQGLEWMGMIDPSDSETTLIQKFKDKVTMTVDKSTSTAYMELSSLRSEDTAVYYCARTLDGYYDYWGQGTTVTVSS
VL: DIQMTQSPSSLSASVGDRVTITCRASENIYSYLAWYQQKPGKSPQLLVYFAKTLAEGVPSRFSGSVSGTQFTLTISSLQPEDFATYYCQHHYGTPWTFGGGTKVEIKR
notes: IgG1-YTE, kappa
Turning to B6, the IC50 in assay [12] worked out at 0.349 nM.

B7: Ch199 (antibody, human IgG1, kappa, V domains shown)
VH: QVQLQQSGPQLVRPGASVKISCKASGYSFTTYWMHWVKQRPGQGLEWIGMIDPSDSETTLIQKFKDKATLTVDKSSSTAYMQLSSPTSEDSAVYYCARTLDGYYDYWGQGTTLTVSS
VL: B6 VL with S9A, D17E, R18T, P40Q, T72S, T74K, S76N, A84G, T85S, V104L
notes: murine variable regions on human IgG1-YTE / kappa; also called Chi 99; chimeric antibody corresponding to mab199
In the case of B7, the IC50 in assay [12] is 0.427 nM. The same molecule registered an EC50 in [7] of 0.516 nM.

B8: hu199-34 (antibody, human IgG1, kappa, V domains shown)
VH: B6 VH with M70L
VL: B6 VL with S43A, Q45K, V48I, Q70D
notes: IgG1-YTE, kappa
For the molecule B8, in [12], the half-inhibitory concentration (IC50) came to 0.711 nM.

B9: hu199-35 (antibody, human IgG1, kappa, V domains shown)
VH: B6 VH with M70L
VL: B6 VL with S43A, Q45K, Q70D
notes: IgG1-YTE, kappa
As for B9, in assay [12], the IC50 worked out at 0.485 nM.

B10: hu199-36 (antibody, human IgG1, kappa, V domains shown)
VH: B6 VH with M70L
VL: B6 VL
notes: IgG1-YTE, kappa
For B10, the results for the 50% inhibitory concentration (IC50) in [3], in [12] and in assay [6] were 0.227 nM, 0.727 nM and 0.569 nM, respectively. The Kd in assay [4] stood at 0.0172 nM; in [5], 0.0105 nM. For the same molecule, the “IC50 (nM), inhibition of TSLP-induced proliferation of BaF3 cells overexpressing TSLPR/IL-7R” value in assay [8] amounted to 0.477 nM.

B11: hu199-33 (antibody, human IgG1, kappa, V domains shown)
VH: B6 VH with M70L
VL: B6 VL with V66G
notes: IgG1-YTE, kappa
With B11, the half-maximal inhibitory concentration (IC50) in assay [12] was 0.205 nM.

B12: hu199-31 (antibody, human IgG1, kappa, V domains shown)
VH: B6 VH with M70L
VL: B6 VL with S43A, Q45K, V48I, V66G, Q70D
notes: IgG1-YTE, kappa
As for B12, in assay [12], the concentration for half-maximal inhibition (IC50) amounted to 0.304 nM.

B13: hu199-32 (antibody, human IgG1, kappa, V domains shown)
VH: B6 VH with M70L
VL: B6 VL with S43A, Q45K, V66G, Q70D
notes: IgG1-YTE, kappa
For B13, the IC50 in assay [12] came to 0.287 nM.

The values are drawn from patent US20240016931A1 (JIANGSU HENGRUI PHARMACEUTICALS, published 2024).
